Measured values from the supplement of paper PMC9732359.
± gives the uncertainty stated by the source.

Test: protein stability index of a GFP-peptide fusion (yeast GPS) (PSI 1-4); higher = more stable; sorted into four equal gates, so the index is relative within each strain
Procedure, shortened: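 The protein stability index combines read frequencies across sorting gates, each weighted by its gate number and then summed. To obtain those frequencies, a pooled yeast library of GFP fusions to tiled 17-residue yeast protein peptides, on a plasmid also expressing Cherry, was grown to mid-log phase in leucine-free medium. The cells were sorted into four equal gates by GFP/Cherry ratio before plasmid amplification by PCR and Illumina sequencing.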

RIATEASKLAAYNKKST [HTB1]
protein stability index (doa10∆): 3.21 ± 0.097
protein stability index (pdr5∆): 2.47 ± 0.24
protein stability index (ubr1∆): 2.94 ± 0.098

KRINKFLDSVHKQGSSY [POP7]
protein stability index (doa10∆): 2.61 ± 0.04
protein stability index (pdr5∆): 2.52 ± 0.033
protein stability index (san1∆): 2.65 ± 0.045
protein stability index (ubr1∆): 2.37 ± 0.031

LKIQFILSTTLDPTDDE [SIN4]
protein stability index (doa10∆): 2.04 ± 0.1
protein stability index (pdr5∆): 2.33 ± 0.081
protein stability index (san1∆): 2.12 ± 0.067
protein stability index (ubr1∆): 2.81 ± 0.099

TKAIQGCSKICDLSSKF [YCS4]
protein stability index (doa10∆): 3.15 ± 0.083
protein stability index (pdr5∆): 3.2 ± 0.069
protein stability index (san1∆): 3.37 ± 0.037
protein stability index (ubr1∆): 3.06 ± 0.098

PVPESAGKADTSIRLEG [SRB4]
protein stability index (doa10∆): 2.96 ± 0.062
protein stability index (pdr5∆): 3.19 ± 0.079
protein stability index (san1∆): 2.95 ± 0.055
protein stability index (ubr1∆): 3.06 ± 0.045

IDESLFNLLILSLNKRI [YCG1]
protein stability index (doa10∆): 2.75 ± 0.072
protein stability index (pdr5∆): 2.25 ± 0.062
protein stability index (san1∆): 2.03 ± 0.077
protein stability index (ubr1∆): 2.15 ± 0.033

KSGKFCSHCGCVYVPNF [SNM1]
protein stability index (doa10∆): 2.48 ± 0.068
protein stability index (pdr5∆): 1.79 ± 0.055
protein stability index (san1∆): 1.7 ± 0.11
protein stability index (ubr1∆): 1.42 ± 0.062

ALRGMFKDRFKDEPVQN [FAS2]
protein stability index (doa10∆): 3.56 ± 0.087
protein stability index (pdr5∆): 3.43 ± 0.085
protein stability index (san1∆): 3.35 ± 0.069
protein stability index (ubr1∆): 3.58 ± 0.11

RLNKLNSNGIAMASLYL [SMD1]
protein stability index (doa10∆): 2.82 ± 0.075
protein stability index (pdr5∆): 2.95 ± 0.063
protein stability index (san1∆): 2.78 ± 0.065
protein stability index (ubr1∆): 2.67 ± 0.069

IETVDDKLKDIVGQTSR [ITC1]
protein stability index (doa10∆): 3.25 ± 0.07
protein stability index (pdr5∆): 3.01 ± 0.075
protein stability index (san1∆): 3.17 ± 0.086
protein stability index (ubr1∆): 3.03 ± 0.14

NNVAYGKKRFRVVTVDG [SMC4]
protein stability index (doa10∆): 1.93 ± 0.11
protein stability index (pdr5∆): 2.1 ± 0.13
protein stability index (san1∆): 1.78 ± 0.13
protein stability index (ubr1∆): 1.83 ± 0.069

FEQKGSQTTTNDSKEES [YLR335W/NUP2]
protein stability index (doa10∆): 3.27 ± 0.12
protein stability index (pdr5∆): 3.13 ± 0.077
protein stability index (san1∆): 2.98 ± 0.11
protein stability index (ubr1∆): 3.23 ± 0.05

KMYDYEEKEESNLAATK [RPN11]
protein stability index (doa10∆): 3.17 ± 0.074
protein stability index (pdr5∆): 3.06 ± 0.082
protein stability index (san1∆): 2.87 ± 0.056
protein stability index (ubr1∆): 2.96 ± 0.1

KEKWPSLELQSFQKIPL [YML103C/NUP188]
protein stability index (doa10∆): 2.27 ± 0.1
protein stability index (pdr5∆): 2.62 ± 0.12
protein stability index (san1∆): 2.03 ± 0.11
protein stability index (ubr1∆): 2.73 ± 0.11

LLAKRLSERKAEKAEIR [RPS6A]
protein stability index (doa10∆): 3.35 ± 0.092
protein stability index (pdr5∆): 3.54 ± 0.11
protein stability index (san1∆): 3.18 ± 0.086
protein stability index (ubr1∆): 3.33 ± 0.084

KVVYIQRRSWRQYVGQL [DIS3]
protein stability index (pdr5∆): 3.51 ± 0.17
protein stability index (san1∆): 3.02 ± 0.12

KGDINPEVSMIRDIREK [RPB2]
protein stability index (doa10∆): 3.29 ± 0.16
protein stability index (pdr5∆): 2.36 ± 0.082
protein stability index (san1∆): 3.4 ± 0.075
protein stability index (ubr1∆): 2.68 ± 0.13

PSLNPIPHFIDNNSSLN [PRP8]
protein stability index (doa10∆): 2.3 ± 0.063
protein stability index (pdr5∆): 2.52 ± 0.05
protein stability index (san1∆): 2.78 ± 0.055
protein stability index (ubr1∆): 2.4 ± 0.045

AQFAGRASIEYYVGQVM [DIS3]
protein stability index (doa10∆): 3.46 ± 0.28
protein stability index (pdr5∆): 2.84 ± 0.2
protein stability index (san1∆): 2.64 ± 0.17

EINSEMCHIVRKFHELN [GRR1]
protein stability index (doa10∆): 2.4 ± 0.057
protein stability index (pdr5∆): 2.81 ± 0.063
protein stability index (san1∆): 2.85 ± 0.064
protein stability index (ubr1∆): 2.44 ± 0.05

EKADYEDEMMHEEDQKT [RPN12]
protein stability index (pdr5∆): 2.97 ± 0.15
protein stability index (ubr1∆): 3.03 ± 0.17

TVVGNASFGKNLQIRQL [DSN1]
protein stability index (pdr5∆): 2.7 ± 0.17
protein stability index (ubr1∆): 2.97 ± 0.2

MHLMALHIHGSSNPLGI [COB]
protein stability index (doa10∆): 2.31 ± 0.07
protein stability index (pdr5∆): 2.1 ± 0.059
protein stability index (san1∆): 2.1 ± 0.052
protein stability index (ubr1∆): 2.32 ± 0.046

ENANAANNGAAFSPLTT [MED2]
protein stability index (doa10∆): 3.1 ± 0.11
protein stability index (pdr5∆): 2.92 ± 0.1
protein stability index (san1∆): 2.88 ± 0.1
protein stability index (ubr1∆): 2.79 ± 0.057

LSIELEGGKNQAELLQL [YJL039C/NUP192]
protein stability index (doa10∆): 2.85 ± 0.14
protein stability index (pdr5∆): 3.11 ± 0.099
protein stability index (san1∆): 3.31 ± 0.21
protein stability index (ubr1∆): 2.67 ± 0.11

QLLNGQKIVVVRAEELN [RPL16A]
protein stability index (doa10∆): 1.28 ± 0.049
protein stability index (pdr5∆): 1.31 ± 0.051
protein stability index (san1∆): 1.24 ± 0.13
protein stability index (ubr1∆): 1.21 ± 0.056

EILVTELTAQGYDPALL [RPN2]
protein stability index (doa10∆): 2.8 ± 0.27
protein stability index (pdr5∆): 3.36 ± 0.15
protein stability index (ubr1∆): 3.28 ± 0.1

NNNETSKPAFSFGAKSD [YJL041W/NSP1]
protein stability index (doa10∆): 2.93 ± 0.11
protein stability index (pdr5∆): 3.1 ± 0.083
protein stability index (san1∆): 3.15 ± 0.067
protein stability index (ubr1∆): 3.61 ± 0.29

MVQQLSLFGSIGDDGYD [SRB5]
protein stability index (doa10∆): 3.17 ± 0.1
protein stability index (pdr5∆): 3.26 ± 0.13
protein stability index (san1∆): 3.16 ± 0.057
protein stability index (ubr1∆): 3.47 ± 0.085

IDLCHDFPHLTPKLQTQ [YCS4]
protein stability index (doa10∆): 2.6 ± 0.042
protein stability index (pdr5∆): 2.65 ± 0.038
protein stability index (san1∆): 2.63 ± 0.042
protein stability index (ubr1∆): 2.49 ± 0.035

LTLKEAELLVLKILKQV [PUP2]
protein stability index (doa10∆): 2.05 ± 0.29
protein stability index (pdr5∆): 2.4 ± 0.26
protein stability index (ubr1∆): 1.63 ± 0.25

SATSKPAFSFGAKPEEK [YJL041W/NSP1]
protein stability index (doa10∆): 3.1 ± 0.15
protein stability index (pdr5∆): 3.31 ± 0.22
protein stability index (san1∆): 3.16 ± 0.11
protein stability index (ubr1∆): 2.55 ± 0.14

SLYQVDPSGSYFPWKAT [PRE8]
protein stability index (doa10∆): 2.87 ± 0.1
protein stability index (pdr5∆): 2.66 ± 0.11
protein stability index (san1∆): 2.65 ± 0.093
protein stability index (ubr1∆): 3.25 ± 0.099

NEEATPIPSSETKADGI [RRP6]
protein stability index (doa10∆): 3.04 ± 0.053
protein stability index (pdr5∆): 3.18 ± 0.058
protein stability index (san1∆): 3.04 ± 0.049
protein stability index (ubr1∆): 3.01 ± 0.04

TQLDKLRPRKDSKDGTT [SMB1]
protein stability index (doa10∆): 2.26 ± 0.28
protein stability index (pdr5∆): 2.15 ± 0.28
protein stability index (ubr1∆): 1.77 ± 0.2

GMGIGFIDHHAAIRQPT [POP1]
protein stability index (pdr5∆): 2.94 ± 0.086
protein stability index (ubr1∆): 2.49 ± 0.15

NISRDFQSYIVSSLPGS [COR1]
protein stability index (doa10∆): 1.63 ± 0.093
protein stability index (pdr5∆): 2.14 ± 0.095
protein stability index (san1∆): 2.08 ± 0.098
protein stability index (ubr1∆): 1.85 ± 0.048

KGGIIASVGDILKTLER [YML031W/NDC1]
protein stability index (doa10∆): 2.99 ± 0.11
protein stability index (pdr5∆): 2.93 ± 0.09
protein stability index (san1∆): 3.32 ± 0.092
protein stability index (ubr1∆): 2.87 ± 0.13

AGAVAPEDIWVRAVNTG [RPP0]
protein stability index (san1∆): 1.93 ± 0.28
protein stability index (ubr1∆): 1.31 ± 0.29

DCLDKLLNDECTESTRE [SNF2]
protein stability index (doa10∆): 3.5 ± 0.14
protein stability index (pdr5∆): 3.4 ± 0.13
protein stability index (san1∆): 3.48 ± 0.091
protein stability index (ubr1∆): 3.41 ± 0.17

SEIWDVSRGQSAVLLET [PRP8]
protein stability index (doa10∆): 2.83 ± 0.16
protein stability index (pdr5∆): 2.65 ± 0.15
protein stability index (san1∆): 3.12 ± 0.26
protein stability index (ubr1∆): 2.04 ± 0.091

QLLMGDIPELSFFHQSN [RPN3]
protein stability index (doa10∆): 2.43 ± 0.067
protein stability index (pdr5∆): 2.2 ± 0.054
protein stability index (san1∆): 2.39 ± 0.077
protein stability index (ubr1∆): 2.62 ± 0.039

NEIANSIIQSKQDCVDW [BRR2]
protein stability index (doa10∆): 2.61 ± 0.069
protein stability index (pdr5∆): 2.87 ± 0.071
protein stability index (san1∆): 2.73 ± 0.071
protein stability index (ubr1∆): 2.88 ± 0.079

MARGPKKHLKRLAAPHH [RPS4A]
protein stability index (doa10∆): 2.9 ± 0.13
protein stability index (pdr5∆): 3 ± 0.087
protein stability index (san1∆): 3.1 ± 0.069
protein stability index (ubr1∆): 3.05 ± 0.054

VAKTAPNSNKTHTEQNN [SNF2]
protein stability index (doa10∆): 2.82 ± 0.04
protein stability index (pdr5∆): 3.07 ± 0.052
protein stability index (san1∆): 3.01 ± 0.033
protein stability index (ubr1∆): 3.06 ± 0.037

SGKLRDYQVQGLNWLIS [ISW2]
protein stability index (doa10∆): 2.58 ± 0.07
protein stability index (pdr5∆): 2.71 ± 0.053
protein stability index (san1∆): 2.33 ± 0.065
protein stability index (ubr1∆): 2.85 ± 0.039

RVMKSLSINEKDFVTMA [YCG1]
protein stability index (doa10∆): 2.35 ± 0.073
protein stability index (pdr5∆): 2.06 ± 0.052
protein stability index (san1∆): 2.1 ± 0.082
protein stability index (ubr1∆): 2.16 ± 0.042

LLSLNSVRSLQKRIENG [SRP68]
protein stability index (doa10∆): 2.13 ± 0.069
protein stability index (pdr5∆): 1.65 ± 0.063
protein stability index (san1∆): 2.1 ± 0.091
protein stability index (ubr1∆): 2.25 ± 0.078

YGTENKDGEDIIFNYVP [CSL4]
protein stability index (doa10∆): 3.3 ± 0.14
protein stability index (pdr5∆): 3.21 ± 0.1
protein stability index (san1∆): 2.92 ± 0.085
protein stability index (ubr1∆): 3.12 ± 0.065

RTLEAITATLVGTVRCE [CSL4]
protein stability index (doa10∆): 1.73 ± 0.12
protein stability index (pdr5∆): 1.91 ± 0.12
protein stability index (san1∆): 1.5 ± 0.14
protein stability index (ubr1∆): 2.47 ± 0.16

ALPNIENDIIKLSDSKT [BRR2]
protein stability index (doa10∆): 2.79 ± 0.054
protein stability index (pdr5∆): 3.16 ± 0.055
protein stability index (san1∆): 2.82 ± 0.044
protein stability index (ubr1∆): 3.23 ± 0.054

ELSFYILYSFKLSGKLL [YML103C/NUP188]
protein stability index (doa10∆): 1.47 ± 0.043
protein stability index (pdr5∆): 1.49 ± 0.04
protein stability index (san1∆): 1.49 ± 0.081
protein stability index (ubr1∆): 1.74 ± 0.037

HIRRMVPLAMGIVSVSD [RPN1]
protein stability index (doa10∆): 1.32 ± 0.039
protein stability index (pdr5∆): 1.61 ± 0.052
protein stability index (san1∆): 1.55 ± 0.083
protein stability index (ubr1∆): 1.57 ± 0.044
